Source: article PMC4520091

Columns and labels:
yPrp3CTF [1] = test: EMSA; conditions: tRNA competitor, EMSA: 20 mM Tris-HCl pH 7.0, 150 mM NaCl, 2 mM DTT, 0.5 ug/ul tRNA, 4 C, titrations: 20 mM HEPES pH 6.8, 150 mM NaCl, 0.33 ug/ul tRNA, human FL/N/C: 10 mM Tris …
yPrp3DUF1115 [2] = test: ITC; conditions: EMSA: 20 mM Tris-HCl pH 7.0, 150 mM NaCl, 2 mM DTT, 0.5 ug/ul tRNA, 4 C; titrations: 20 mM HEPES pH 6.8, 150 mM NaCl, 0.33 ug/ul tRNA; human FL/N/C: 10 mM Tris …
yPrp3CTF [3] = test: ITC; conditions: 20 C, GAGA-fused RNA; EMSA: 20 mM Tris-HCl pH 7.0, 150 mM NaCl, 2 mM DTT, 0.5 ug/ul tRNA, 4 C; titrations: 20 mM HEPES pH 6.8, 150 mM NaCl, 0.33 ug/ul tRNA; human FL/N/C: 10 mM Tris …
yPrp3CTF R304A [4] = test: ITC; conditions: 20 C, GAGA-fused RNA; EMSA: 20 mM Tris-HCl pH 7.0, 150 mM NaCl, 2 mM DTT, 0.5 ug/ul tRNA, 4 C; titrations: 20 mM HEPES pH 6.8, 150 mM NaCl, 0.33 ug/ul tRNA; human FL/N/C: 10 mM Tris …
yPrp3CTF R322A [5] = test: ITC; conditions: 20 C, GAGA-fused RNA; EMSA: 20 mM Tris-HCl pH 7.0, 150 mM NaCl, 2 mM DTT, 0.5 ug/ul tRNA, 4 C; titrations: 20 mM HEPES pH 6.8, 150 mM NaCl, 0.33 ug/ul tRNA; human FL/N/C: 10 mM Tris …
yPrp3DUF1115 [6] = test: EMSA; conditions: tRNA competitor; apparent Kd; EMSA: 20 mM Tris-HCl pH 7.0, 150 mM NaCl, 2 mM DTT, 0.5 ug/ul tRNA, 4 C; titrations: 20 mM HEPES pH 6.8, 150 mM NaCl, 0.33 ug/ul tRNA; human FL/N/C: 10 mM Tris …
yPrp3CTF R304A [7] = test: EMSA; conditions: tRNA competitor; apparent Kd; EMSA: 20 mM Tris-HCl pH 7.0, 150 mM NaCl, 2 mM DTT, 0.5 ug/ul tRNA, 4 C; titrations: 20 mM HEPES pH 6.8, 150 mM NaCl, 0.33 ug/ul tRNA; human FL/N/C: 10 mM Tris …
yPrp3CTF R322A [8] = test: EMSA; conditions: tRNA competitor; apparent Kd; EMSA: 20 mM Tris-HCl pH 7.0, 150 mM NaCl, 2 mM DTT, 0.5 ug/ul tRNA, 4 C; titrations: 20 mM HEPES pH 6.8, 150 mM NaCl, 0.33 ug/ul tRNA; human FL/N/C: 10 mM Tris …

Substance | binding signal (fold lower affinity than wt) (yPrp3CTF [1]) | Kd (yPrp3DUF1115 [2]) [nM] | Kd (yPrp3CTF [3]) [nM] | Kd (yPrp3CTF R304A [4]) [nM] | Kd (yPrp3CTF R322A [5]) [nM] | Kd (yPrp3DUF1115 [6]) [nM] | Kd (yPrp3CTF [1]; apparent Kd) [nM] | Kd (yPrp3CTF R304A [7]) [nM] | Kd (yPrp3CTF R322A [8]) [nM]
yU4/U6 stem II+13nt U4 C12G | 2 | – | – | – | – | – | – | – | –
yU4/U6 stem II+13nt U6 C69G | 2 | – | – | – | – | – | – | – | –
yU4/U6 stem II+13nt | – | 380 | 110 | 260 | 400 | 1830 | 920 | 1580 | 2630
